The record followed here is doi:10.1101/2023.06.21.545551 (2023).

Where only a bound is given, the exact number is not on record here.

For this assay, the target named is MYC(303–351) (human). The assay is described as follows: NMR; printed fit value 1205 uM in parentheses.

As usually defined, the Kd is the equilibrium constant for the complex coming apart.

B1: MYC(1–88) (domain or fragment)
chain: MPLNVSFTNRNYDLDYDSVQPYFYCDEEENFYQQQQQSELQPPAPSEDIWKKFELLPTPPLSPSRRSGLCSPSYVAVTPFSLRGDNDG
As for B1, the Kd is above 1000 µM.
